Usually Kd stands for the equilibrium constant for the complex coming apart.

The assay deals with bovine arrestin-3^1−393 (truncated arrestin-3, residues 1–393), purified (bovine, UniProt P32120 1-393). The assay can be described thus: MST.
Chain of bovine arrestin-3^1−393 (truncated arrestin-3, residues 1–393), purified (P32120 1-393): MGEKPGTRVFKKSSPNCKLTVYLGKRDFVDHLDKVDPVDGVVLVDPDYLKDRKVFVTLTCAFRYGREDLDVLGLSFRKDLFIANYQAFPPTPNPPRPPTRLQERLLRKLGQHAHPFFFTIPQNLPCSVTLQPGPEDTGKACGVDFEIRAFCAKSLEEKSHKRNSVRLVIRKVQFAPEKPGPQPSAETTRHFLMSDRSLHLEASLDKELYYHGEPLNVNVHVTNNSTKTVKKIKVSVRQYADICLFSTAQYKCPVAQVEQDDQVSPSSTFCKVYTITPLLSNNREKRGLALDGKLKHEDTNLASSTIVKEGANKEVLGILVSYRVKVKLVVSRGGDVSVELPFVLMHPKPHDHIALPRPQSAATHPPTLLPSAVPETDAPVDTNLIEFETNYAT

B1: human His-MELK^1−326,T167E (maternal embryonic leucine-zipper kinase, kinase domain and flanking ubiquitin-associated domain, residues 1–326, T167E) (domain or fragment, UniProt Q14680 1-326, looked up)
chain: MKDYDELLKYYELHETIGTGGFAKVKLACHILTGEMVAIKIMDKNTLGSDLPRIKTEIEALKNLRHQHICQLYHVLETANKIFMVLEYCPGGELFDYIISQDRLSEEETRVVFRQIVSAVAYVHSQGYAHRDLKPENLLFDEYHKLKLIDFGLCAKPKGNKDYHLQECCGSLAYAAPELIQGKSYLGSEADVWSMGILLYVLMCGFLPFDDDNVMALYKKIMRGKYDVPKWLSPSSILLLQQMLQVDPKKRISMKNLLNHPWIMQDYNYPVEWQSKNPFIHLDDDCVTELSVHHRNNRQTMEDLISLWQYDHLTATYLLLLAKKAR
modifications: RED-tris-NTA dye on the His tag (in the MST experiment only)
B1 displayed a Kd of 130 ± 35 nM.

The record behind these values is article PMC6717526 (Cellular signalling, 2019).
